Key:
Assay in all cases: pulldown
[1] = test system: Hemagglutinins of 14 non-H5 subtypes (H1-H4, H6-H13, H15, H16; Table 1 strains) (Influenza A virus)
[2] = test system: Hemagglutinin H5N1 A/Hong Kong/483/97 (H-12) (Influenza A virus H5N1 (A/Hong King/483/97))
[3] = test system: Hemagglutinin H5N1 A/Hubei/2010 (HB-16) (Influenza A virus H5N1 (A/Hubei/2010))
[4] = test system: Hemagglutinin H5N1 A/duck/Hunan/795/2002 (HN-8) (Influenza A virus H5N1 (A/duck/Hunan/795/2002))
[5] = test system: Hemagglutinin H5N2 A/American green-winged teal/California/HKWF609/2007 (A-17) (Influenza A virus H5N2 (A/American green-winged teal/California/HKWF609/2007))
[6] = test system: Hemagglutinin H5N1 A/bar-headed goose/Qinghai/14/2008 (Hg-2) (Influenza A virus H5N1 (A/bar-headed goose/Qinghai/14/2008))
[7] = test system: Hemagglutinin H5N8 A/duck/NY191255-59/2002 (D-14) (Influenza A virus H5N8 (A/duck/NY191255-59/2002))
[8] = test system: Hemagglutinin H5N1 A/Cambodia/R0405050/2007 (C-8) (Influenza A virus H5N1 (A/Cambodia/R0405050/2007))
[9] = test system: Hemagglutinin H5N3 A/duck/Hokkaido/167/2007 (HK-12) (Influenza A virus H5N3 (A/duck/Hokkaido/167/2007))
[10] = test system: Hemagglutinin H5N1 A/Indonesia/5/2005 (IN-3) (Influenza A virus H5N1 (A/Indonesia/5/2005))
[11] = test system: Hemagglutinin H5N1 A/Japanese white-eye/Hong Kong/1038/2006 (JW-1) (Influenza A virus H5N1 (A/Japanese white-eye/Hong Kong/1038/2006))
[12] = test system: Hemagglutinin H5N1 A/Vietnam/1994/2004 (V-16) (Influenza A virus H5N1 (A/Vietnam/1994/2004))
[13] = test system: Hemagglutinin H5N1 A/Egypt/2321-NAMRU3/2007 (EG-2) (Influenza A virus H5N1 (A/Egypt/2321-NAMRU3/2007))
[14] = test system: Hemagglutinin H5N1 A/goose/Guiyang/337/2006 (G-8) (Influenza A virus H5N1 (A/goose/Guiyang/337/2006))

Sequence | binding signal [1] [%] | also measured
AGTGGGTTCTTGGTGCATCCCAGGAGTACC [A1] | < 20 | Kd [2]: 25.9 nM
ATTGCAAGGAGAGGCTACGGCTATGACAGA [A8] | < 20 | Kd [3]: 9.4 nM
CTTCTTCCACCCATGCCGGCTGGAGAATCC [A5] | < 20 | Kd [4]: 12.4 nM
GCGAGGTTGAGCGTGGGCTACTTGGTTCAT [A11] | < 20 | Kd [5]: 3.5 nM
GGGGTCAACTTTTCCTTTGTCGGTTTT [A2] | < 20 | Kd [6]: 13.4 nM
TACTTATGTGGGCCGGTGCGTTTGCATTTT [A13] | < 20 | Kd [7]: 0.7 nM
TCACGCTTTTGGTGCATGCAGAGTTTTGTG [A4] | < 20 | Kd [8]: 43.6 nM
TGCACGCAGGGGCCGCTTGGGTGGAGAGGC [A12] | < 20 | Kd [9]: 3.5 nM
TGGATTCACGCGGTCTCCGCCCTTGGGTGG [A6] | < 20 | Kd [10]: 14 nM
TGGATTGCACGCAGGGGCCGCTTGGCTGTC [A9] | < 20 | Kd [11]: 7.84 nM
TGGCAGTGGGTTGAGGGGAAGTCTTATTCG [A3] | < 20 | Kd [12]: 7.57 nM
TGGGTTTGGAAATTGGGACACAGTGGGGCG [A7] | < 20 | Kd [13]: 1.96 nM
TGTCGGGGGAACAATCTGTGTTCGCTTGTC [A10] | < 20 | Kd [14]: 5.74 nM

— patent US20180050058
